Results on two molecules are retold here after paper PMC8391806, “Enthalpy–Entropy Compensation in the Promiscuous Interaction of an Intrinsically Disordered Protein with Homologous Protein Partners” (Biomolecules, 2021).

What all share (details): both partners purified
The target of assay [1] is T1, p38α kinase (residues 1–360 of human p38α) (human, UniProt Q16539 1-360).
T1 construct: source: expressed and purified as described previously [34,35]
The experiment in a line: NMR 15N CEST and CPMG relaxation dispersion; 247 μM 15N MKK4 with 6% molar ratio of p38α; data acquired previously [35], analysed here with a two-site exchange model.

Assay [2] addresses T2, JNK1 kinase (residues 1–364 of human JNK1 (isoform α1) with a C-terminal 6xHis tag) (human, UniProt P45983 1-364).
T2 construct: Human JNK1 (c-Jun N-terminal kinase 1), isoform α1, residues 1-364; source: expressed and purified as described previously [34,35]
The experiment in a line: NMR 15N CEST; 250 μM 15N MKK4 with 10% molar ratio of JNK1; 5 °C; 50 mM HEPES pH 7.1, 150 mM NaCl, 2 mM DTT, 5% glycerol; two-site exchange model (ChemEx).

In assay [3] the target is T2, JNK1 kinase (residues 1–364 of human …). In words: NMR 15N CEST + ITC; on-rate worked out from the off-rate of CEST (5 °C) and the dissociation constant of ITC (20 °C).
Assay [4] has as its target T1, p38α kinase (residues 1–360 of human …). The experiment in a line: NMR 15N CEST and CPMG relaxation dispersion + ITC; on-rate worked out from the off-rate of the NMR exchange analysis and the dissociation constant of ITC (ITC of ref. 35).
Assay [5] has as its target T2, JNK1 kinase (residues 1–364 of human …). In words: ITC; MKK4 (570 μM, with thioredoxin and 6xHis tag) titrated into JNK1 (42 μM); 20 °C; 50 mM HEPES pH 8.2, 150 mM NaCl, 10% glycerol, 0.5 mM TCEP; model of n identical and independent sites. For orientation: ITC needs no label: the signal is the heat of the interaction.

What is called koff is a measure of how fast the partners let go of each other. One may read the kon as the rate constant with which the complex forms. In general, Kd refers to the free concentration of one partner at which half of the binding sites on the other are occupied at equilibrium, for simple one-to-one binding. Lower therefore signals a tighter complex. Broadly, the stoichiometry N is the number of molecules, sites or subunits per partner or assembly.

T2 sequence (P45983 1-364): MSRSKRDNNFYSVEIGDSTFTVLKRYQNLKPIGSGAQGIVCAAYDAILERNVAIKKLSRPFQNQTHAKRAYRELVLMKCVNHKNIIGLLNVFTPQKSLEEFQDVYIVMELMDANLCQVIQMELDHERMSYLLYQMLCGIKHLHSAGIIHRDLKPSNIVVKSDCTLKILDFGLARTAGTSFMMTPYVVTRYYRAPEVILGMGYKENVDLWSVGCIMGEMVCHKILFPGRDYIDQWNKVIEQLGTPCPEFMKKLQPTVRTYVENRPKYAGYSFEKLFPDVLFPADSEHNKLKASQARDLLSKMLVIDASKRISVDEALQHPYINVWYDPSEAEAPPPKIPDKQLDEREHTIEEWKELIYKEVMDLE
T1 sequence (Q16539 whole entry, the tested form may be a part): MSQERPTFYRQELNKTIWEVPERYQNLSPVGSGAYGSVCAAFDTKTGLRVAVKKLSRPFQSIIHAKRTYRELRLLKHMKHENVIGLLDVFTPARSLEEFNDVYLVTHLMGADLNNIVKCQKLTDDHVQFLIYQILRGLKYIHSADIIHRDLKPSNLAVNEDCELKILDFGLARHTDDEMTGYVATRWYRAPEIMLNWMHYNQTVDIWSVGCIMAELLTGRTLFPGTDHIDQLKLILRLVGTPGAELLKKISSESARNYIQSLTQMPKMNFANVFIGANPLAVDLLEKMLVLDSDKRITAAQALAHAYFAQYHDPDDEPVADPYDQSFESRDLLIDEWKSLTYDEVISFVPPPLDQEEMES

B1: regulatory domain of MKK4 (residues 12–86 of human MKK4), 15N-labeled, for NMR (domain or fragment, UniProt P45985 12-86, looked up)
chain: SGGGSGSGTPGPVGSPAPGHPAVSSMQGKRKALKLNFANPPFKSTARFTLNPNPTGVQNPHIERLRTHSIESSGK
notes: Uniformly 15N-labeled for NMR; also called intrinsically disordered regulatory domain of MKK4; source: expressed and purified as described previously [34,35]
Consider B1, for which, in assay [1], the koff is 205 s⁻¹ and the “population of the bound state (6% molar ratio of p38α)” value worked out at 6.2 ± 0.1%. Moreover, in assay [2], the koff stood at 90 s⁻¹ and the “population of the bound state (10% molar ratio of JNK1)” value is 8.7 ± 0.1%. Moreover, the on-rate constant (kon) in assay [3] worked out at 6.95e+07 M⁻¹ s⁻¹. In addition, the kon in assay [4] amounted to 5.01e+07 M⁻¹ s⁻¹.

B2: regulatory domain of MKK4 (residues 12–86) with N-terminal thioredoxin and 6xHis tag, unlabeled, for ITC (domain or fragment, human, UniProt P45985 12-86, looked up)
chain: SGGGSGSGTPGPVGSPAPGHPAVSSMQGKRKALKLNFANPPFKSTARFTLNPNPTGVQNPHIERLRTHSIESSGK
notes: source: expressed and purified as described previously [34,35]; size-exclusion chromatography in the ITC buffer; not shown: thioredoxin, N-terminal, kept; His6, N-terminal, kept
On to B2, for which, in assay [5], the Kd was 1300 nM and the “stoichiometry N” value was determined as 1.
